US11898181B2, “Genetically modified isopropylmalate isomerase enzyme complexes and processes to prepare elongated 2-ketoacids and C5-C10 compounds therewith” (Dow Global Technologies LLC, priority 2017, dated 2022)
Positions count from the first letter of the chain named. Numbers in names are those of the source.

Experiments:
Format in all cases: biochemical, E. coli
[1] = substrate: CCCCC(O)(CC(=O)O)C(=O)O; assay: Kinetic analysis of LeuCD (LeuB-coupled HTP assay), Variant 6; conditions: other: 2-BM 0-5 mM, pH 8, room temperature, 30 min
[2] = substrate: CCCCCCC(O)(CC(=O)O)C(=O)O; assay: as above; conditions: other: 2-HM 0-1.6 mM, pH 8, room temperature, 30 min
[3] = substrate: CCCCC(O)(CC(=O)O)C(=O)O; assay: Kinetic analysis of LeuCD (LeuB-coupled HTP assay), Variant 1; conditions: other: 2-BM 0-5 mM, pH 8, room temperature, 30 min
[4] = substrate: CCCCCCC(O)(CC(=O)O)C(=O)O; assay: as above; conditions: other: 2-HM 0-1.6 mM, pH 8, room temperature, 30 min
[5] = substrate: CCCCC(O)(CC(=O)O)C(=O)O; assay: Kinetic analysis of LeuCD (LeuB-coupled HTP assay), Variant 59; conditions: other: 2-BM 0-5 mM, pH 8, room temperature, 30 min
[6] = substrate: CCCCCCC(O)(CC(=O)O)C(=O)O; assay: as above; conditions: other: 2-HM 0-1.6 mM, pH 8, room temperature, 30 min
[7] = substrate: CCCCC(O)(CC(=O)O)C(=O)O; assay: Kinetic analysis of LeuCD (LeuB-coupled HTP assay), Variant 3 (wild type); conditions: other: 2-BM 0-5 mM, pH 8, room temperature, 30 min
[8] = substrate: CCCCCCC(O)(CC(=O)O)C(=O)O; assay: as above; conditions: other: 2-HM 0-1.6 mM, pH 8, room temperature, 30 min
[9] = substrate: CC(C)[C@@](O)(CC(=O)O)C(=O)O; assay: as above; conditions: other: 2-IPM 0-0.625 mM, pH 8, room temperature, 30 min
[10] = substrate: CCCCC(O)(CC(=O)O)C(=O)O; assay: Kinetic analysis of LeuCD (LeuB-coupled HTP assay), Variant 5; conditions: other: 2-BM 0-5 mM, pH 8, room temperature, 30 min
[11] = substrate: CCCCCCC(O)(CC(=O)O)C(=O)O; assay: as above; conditions: other: 2-HM 0-1.6 mM, pH 8, room temperature, 30 min
[12] = substrate: CCCCC(O)(CC(=O)O)C(=O)O; assay: Kinetic analysis of LeuCD (LeuB-coupled HTP assay), Variant 61; conditions: other: 2-BM 0-5 mM, pH 8, room temperature, 30 min
[13] = substrate: CCCCCCC(O)(CC(=O)O)C(=O)O; assay: as above; conditions: other: 2-HM 0-1.6 mM, pH 8, room temperature, 30 min
[14] = substrate: CCCCC(O)(CC(=O)O)C(=O)O; assay: Kinetic analysis of LeuCD (LeuB-coupled HTP assay), Variant 9; conditions: other: 2-BM 0-5 mM, pH 8, room temperature, 30 min
[15] = substrate: CCCCCCC(O)(CC(=O)O)C(=O)O; assay: as above; conditions: other: 2-HM 0-1.6 mM, pH 8, room temperature, 30 min

B1: E. coli isopropylmalate isomerase LeuCD complex, Variant 6 (wt LeuC + L31G-LeuD; parents SEQ ID NO: 1 and SEQ ID NO: 2) (Escherichia coli K-12; L31G) (protein)
chain 1: MGSSHHHHHHSSGMAKTLYEKLFDAHVVYEAENETPLLYIDRHLVHEVTSPQAFDGLRAHGRPVRQPGKTFATMDHNVSTQTKDINACGEMARIQMQELIKNCKEFGVELYDLNHPYQGIVHVMGPEQGVTLPGMTIVCGDSHTATHGAFGALAFGIGTSEVEHVLATQTLKQGRAKTMKIEVQGKAAPGITAKDIVLAIIGKTGSAGGTGHVVEFCGEAIRDLSMEGRMTLCNMAIEMGAKAGLVAPDETTFNYVKGRLHAPKGKDFDDAVAYWKTLQTDEGATFDTVVTLQAEEISPQVTWGTNPGQVISVNDNIPDPASFADPVERASAEKALAYMGLKPGIPLTEVAIDKVFIGSCTNSRIEDLRAAAEIAKGRKVAPGVQALVVPGSGPVKAQAEAEGLDKIFIEAGFEWRLPGCSMCLAMNNDRLNPGERCASTSNRNFEGRQGRGGRTHLVSPAMAAAAAVTGHFADIRNIK
chain 2: MAEKFIKHTGLVVPLDAANVDTDAIIPKQFGQKVTRTGFGAHLFNDWRFLDEKGQQPNPDFVLNFPQYQGASILLARENFGCGSSREHAPWALTDYGFKVVIAPSFADIFYGNSFNNQLLPVKLSDAEVDELFALVKANPGIHFDVDLEAQEVKAGEKTYRFTIDAFRRHCMMNGLDSIGLTLQHDDAIAAYEAKQPAFMN
notes: expression of a His-tagged LeuC having 13 additional amino acids on the N-terminus; made in house; host or cells: E. coli BL21(DE3), whole cell lysate
B1 was tested, and the Km [1] was 8440 ± 2400 µM, the kcat [1] was 0.132 ± 0.0333 s⁻¹ and the kcat/Km [1] was 17.2 ± 6.67 M⁻¹ s⁻¹. The Km [2] was 650 ± 40 µM, the kcat [2] was 0.3436 ± 0.00944 s⁻¹ and the kcat/Km [2] was 532.5 ± 35.8 M⁻¹ s⁻¹.

B2: E. coli isopropylmalate isomerase LeuCD complex, Variant 1 (V35A-LeuC + wt LeuD; parents SEQ ID NO: 1 and SEQ ID NO: 2) (Escherichia coli K-12; V35A) (protein)
chain 1: B1 chain 1 with V48A
chain 2: B1 chain 2 with G31L
notes: as for B1
Work on B2 yielded a Km [3] of 3900 ± 700 µM, a kcat [3] of 0.151 ± 0.0231 s⁻¹ and a kcat/Km [3] of 40.3 ± 9.44 M⁻¹ s⁻¹. It also gave a Km [4] of 3350 ± 750 µM, a kcat [4] of 0.0872 ± 0.0153 s⁻¹ and a kcat/Km [4] of 27.2 ± 7.78 M⁻¹ s⁻¹.

B3: E. coli isopropylmalate isomerase LeuCD complex, Variant 59 (wt LeuC + L31V/H88A-LeuD; parents SEQ ID NO: 1 and SEQ ID NO: 2) (Escherichia coli K-12; H88A/L31V) (protein)
chain 1: B1 chain 1
chain 2: B1 chain 2 with G31V, H88A
notes: as for B1
With B3 the Km [5] was 2700 ± 400 µM, the kcat [5] was 0.0606 ± 0.00611 s⁻¹ and the kcat/Km [5] was 23.1 ± 3.89 M⁻¹ s⁻¹. The Km [6] was 3800 ± 900 µM, the kcat [6] was 0.0506 ± 0.0103 s⁻¹ and the kcat/Km [6] was 13.9 ± 4.44 M⁻¹ s⁻¹.

B4: E. coli isopropylmalate isomerase LeuCD complex, wild type (Variant 3: Wt LeuC, SEQ ID NO: 1 + Wt LeuD, SEQ ID NO: 2) (Escherichia coli K-12) (protein)
chain 1: B1 chain 1
chain 2: B1 chain 2 with G31L
notes: as for B1
Protein B4 has a Km [7] of 1330 ± 140 µM, a kcat [7] of 1.7 ± 0.0897 s⁻¹ and a kcat/Km [7] of 1291 ± 154 M⁻¹ s⁻¹. It also gave a kcat/Km [8] of 1.1 ± 0.28 M⁻¹ s⁻¹, a Km [9] of 68 ± 10 µM and a kcat [9] of 0.4239 ± 0.0161 s⁻¹. The kcat/Km [9] was 6212.8 ± 659.7 M⁻¹ s⁻¹.

B5: E. coli isopropylmalate isomerase LeuCD complex, Variant 5 (wt LeuC + L31A-LeuD; parents SEQ ID NO: 1 and SEQ ID NO: 2) (Escherichia coli K-12; L31A) (protein)
chain 1: B1 chain 1
chain 2: B1 chain 2 with G31A
notes: as for B1
B5 gave a Km [10] of 1310 ± 140 µM, a kcat [10] of 0.3889 ± 0.0214 s⁻¹ and a kcat/Km [10] of 299.2 ± 35.8 M⁻¹ s⁻¹. For the same protein, the Km [11] was 1400 ± 600 µM, the kcat [11] was 0.00972 ± 0.0014 s⁻¹ and the kcat/Km [11] was 8.06 ± 3.61 M⁻¹ s⁻¹.

B6: E. coli isopropylmalate isomerase LeuCD complex, Variant 61 (wt LeuC + L31G/H88A-LeuD; parents SEQ ID NO: 1 and SEQ ID NO: 2) (Escherichia coli K-12; H88A/L31G) (protein)
chain 1: B1 chain 1
chain 2: B1 chain 2 with H88A
notes: as for B1
With B6 the kcat/Km [12] was 0.278 ± 0 M⁻¹ s⁻¹ and the kcat/Km [13] was 6.11 ± 0.56 M⁻¹ s⁻¹.

B7: E. coli isopropylmalate isomerase LeuCD complex, Variant 9 (V35A-LeuC + L31G-LeuD; parents SEQ ID NO: 1 and SEQ ID NO: 2) (Escherichia coli K-12; L31G/V35A) (protein)
chain 1: B1 chain 1 with V48A
chain 2: B1 chain 2
notes: as for B1
With B7 the kcat/Km [14] was 0.56 ± 0 M⁻¹ s⁻¹, the Km [15] was 600 ± 34 µM and the kcat [15] was 0.0461 ± 0.0014 s⁻¹. It also gave a kcat/Km [15] of 78.6 ± 5 M⁻¹ s⁻¹.
